Test results published in patent US20110144024A1.

Experiments:
thrombin [1] = experiment: SPR (Biacore 3000), 50 nM TM irradiated with 1.77 Gy over immobilized thrombin; reference is sham-irradiated (0 Gy) TM; 3 experiments
thrombin [2] = experiment: cell-based or functional assay
thrombin [3] = experiment: SPR (Biacore 3000), 50 nM TM irradiated with 20 Gy over immobilized thrombin; reference is sham-irradiated (0 Gy) TM; 3 experiments
thrombin [4] = experiment: SPR (Biacore 3000), 50 nM TM irradiated with 80 Gy over immobilized thrombin; reference is sham-irradiated (0 Gy) TM; 3 experiments

decrease of average RU value relative to baseline (0 Gy) (thrombin [1]): 13.2%
mean reduction in protein C activation, TM exposed to 1.77 Gy without MPO (thrombin [2]): 12%
reduction in protein C activation, TM exposed to 1.77 Gy in the presence of MPO (thrombin [2]): 40%
decrease of average RU value relative to baseline (0 Gy) (thrombin [3]): 18.9%
decrease of average RU value relative to baseline (0 Gy) (thrombin [4]): 21.6%
Substance: recombinant full length human thrombomodulin (from UniProt P07204 19-515) (receptor)
